This note sets out measurements from article PMC12187939.

The target in experiment [1] is CBP, A549 nuclear extract (UniProt Q92793). As to the kind of experiment: FLAG IP/MS. The conditions noted are these: nuclear fractions from A549 cells; four individual replicates; read off a plot.
Experiment [2] addresses p300, A549 nuclear extract (UniProt Q09472). As to the kind of experiment: FLAG IP/MS. The conditions noted are these: nuclear fractions from A549 cells; four individual replicates; read off a plot.
UniProt Q09472, sequence (Q09472 whole entry): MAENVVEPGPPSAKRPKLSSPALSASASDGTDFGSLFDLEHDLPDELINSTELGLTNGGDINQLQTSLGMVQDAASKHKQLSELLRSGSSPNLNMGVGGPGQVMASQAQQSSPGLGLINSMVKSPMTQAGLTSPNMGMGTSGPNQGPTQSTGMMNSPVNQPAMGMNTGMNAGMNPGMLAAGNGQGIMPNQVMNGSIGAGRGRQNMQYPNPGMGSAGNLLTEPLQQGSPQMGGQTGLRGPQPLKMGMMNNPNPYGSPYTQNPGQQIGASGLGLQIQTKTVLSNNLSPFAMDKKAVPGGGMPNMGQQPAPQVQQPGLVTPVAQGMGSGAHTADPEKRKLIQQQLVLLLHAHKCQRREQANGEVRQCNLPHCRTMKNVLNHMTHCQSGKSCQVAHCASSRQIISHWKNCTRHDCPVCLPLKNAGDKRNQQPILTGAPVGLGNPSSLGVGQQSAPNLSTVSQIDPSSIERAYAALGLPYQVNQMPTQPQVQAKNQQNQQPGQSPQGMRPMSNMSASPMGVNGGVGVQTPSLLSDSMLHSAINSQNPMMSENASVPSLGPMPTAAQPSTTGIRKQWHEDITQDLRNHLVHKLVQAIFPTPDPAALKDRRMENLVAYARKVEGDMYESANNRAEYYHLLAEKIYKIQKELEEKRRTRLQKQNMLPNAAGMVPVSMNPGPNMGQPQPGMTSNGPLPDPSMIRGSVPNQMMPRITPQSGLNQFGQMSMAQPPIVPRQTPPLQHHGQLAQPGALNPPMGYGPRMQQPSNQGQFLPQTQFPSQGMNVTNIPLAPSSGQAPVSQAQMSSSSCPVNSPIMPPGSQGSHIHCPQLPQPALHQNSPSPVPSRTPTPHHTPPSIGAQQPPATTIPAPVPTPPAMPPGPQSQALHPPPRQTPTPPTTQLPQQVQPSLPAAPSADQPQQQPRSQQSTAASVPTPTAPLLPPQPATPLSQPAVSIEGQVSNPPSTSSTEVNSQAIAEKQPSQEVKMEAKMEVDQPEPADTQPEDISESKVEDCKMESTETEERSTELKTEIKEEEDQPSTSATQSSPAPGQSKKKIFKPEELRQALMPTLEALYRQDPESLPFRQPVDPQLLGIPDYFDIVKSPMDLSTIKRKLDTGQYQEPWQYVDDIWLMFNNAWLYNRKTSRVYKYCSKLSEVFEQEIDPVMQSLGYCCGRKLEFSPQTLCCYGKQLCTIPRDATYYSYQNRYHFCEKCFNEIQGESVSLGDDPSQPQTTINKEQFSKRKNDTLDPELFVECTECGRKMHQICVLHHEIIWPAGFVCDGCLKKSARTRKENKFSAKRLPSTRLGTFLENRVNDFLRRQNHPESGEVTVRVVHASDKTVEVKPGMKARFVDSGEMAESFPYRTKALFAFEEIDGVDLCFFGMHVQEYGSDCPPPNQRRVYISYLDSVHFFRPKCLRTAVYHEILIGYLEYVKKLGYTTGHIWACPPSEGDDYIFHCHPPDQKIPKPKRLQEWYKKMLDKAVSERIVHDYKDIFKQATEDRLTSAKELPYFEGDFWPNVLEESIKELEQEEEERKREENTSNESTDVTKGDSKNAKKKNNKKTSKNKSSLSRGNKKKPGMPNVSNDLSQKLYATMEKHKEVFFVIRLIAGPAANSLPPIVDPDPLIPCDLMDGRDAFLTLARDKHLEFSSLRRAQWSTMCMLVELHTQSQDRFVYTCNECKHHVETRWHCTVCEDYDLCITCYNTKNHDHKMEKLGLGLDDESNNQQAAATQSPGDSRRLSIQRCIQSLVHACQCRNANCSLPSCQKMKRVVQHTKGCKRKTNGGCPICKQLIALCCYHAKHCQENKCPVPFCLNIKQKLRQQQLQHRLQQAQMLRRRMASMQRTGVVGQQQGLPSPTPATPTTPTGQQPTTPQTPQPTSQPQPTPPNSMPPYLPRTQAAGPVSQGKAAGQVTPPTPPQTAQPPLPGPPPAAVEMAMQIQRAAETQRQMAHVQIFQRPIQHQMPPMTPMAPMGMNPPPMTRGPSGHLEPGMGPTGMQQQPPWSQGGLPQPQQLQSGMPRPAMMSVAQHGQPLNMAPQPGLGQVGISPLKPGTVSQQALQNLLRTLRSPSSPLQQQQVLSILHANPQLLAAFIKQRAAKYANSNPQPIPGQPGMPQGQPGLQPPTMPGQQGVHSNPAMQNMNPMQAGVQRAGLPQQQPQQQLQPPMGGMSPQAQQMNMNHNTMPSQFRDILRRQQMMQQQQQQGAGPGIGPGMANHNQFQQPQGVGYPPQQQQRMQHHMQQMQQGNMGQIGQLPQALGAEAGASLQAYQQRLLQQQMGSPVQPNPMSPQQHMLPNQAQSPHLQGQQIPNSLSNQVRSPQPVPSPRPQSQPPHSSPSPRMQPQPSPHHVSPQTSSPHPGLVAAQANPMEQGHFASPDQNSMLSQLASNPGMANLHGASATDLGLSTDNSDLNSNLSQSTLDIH

UniProt Q92793, sequence (Q92793 whole entry): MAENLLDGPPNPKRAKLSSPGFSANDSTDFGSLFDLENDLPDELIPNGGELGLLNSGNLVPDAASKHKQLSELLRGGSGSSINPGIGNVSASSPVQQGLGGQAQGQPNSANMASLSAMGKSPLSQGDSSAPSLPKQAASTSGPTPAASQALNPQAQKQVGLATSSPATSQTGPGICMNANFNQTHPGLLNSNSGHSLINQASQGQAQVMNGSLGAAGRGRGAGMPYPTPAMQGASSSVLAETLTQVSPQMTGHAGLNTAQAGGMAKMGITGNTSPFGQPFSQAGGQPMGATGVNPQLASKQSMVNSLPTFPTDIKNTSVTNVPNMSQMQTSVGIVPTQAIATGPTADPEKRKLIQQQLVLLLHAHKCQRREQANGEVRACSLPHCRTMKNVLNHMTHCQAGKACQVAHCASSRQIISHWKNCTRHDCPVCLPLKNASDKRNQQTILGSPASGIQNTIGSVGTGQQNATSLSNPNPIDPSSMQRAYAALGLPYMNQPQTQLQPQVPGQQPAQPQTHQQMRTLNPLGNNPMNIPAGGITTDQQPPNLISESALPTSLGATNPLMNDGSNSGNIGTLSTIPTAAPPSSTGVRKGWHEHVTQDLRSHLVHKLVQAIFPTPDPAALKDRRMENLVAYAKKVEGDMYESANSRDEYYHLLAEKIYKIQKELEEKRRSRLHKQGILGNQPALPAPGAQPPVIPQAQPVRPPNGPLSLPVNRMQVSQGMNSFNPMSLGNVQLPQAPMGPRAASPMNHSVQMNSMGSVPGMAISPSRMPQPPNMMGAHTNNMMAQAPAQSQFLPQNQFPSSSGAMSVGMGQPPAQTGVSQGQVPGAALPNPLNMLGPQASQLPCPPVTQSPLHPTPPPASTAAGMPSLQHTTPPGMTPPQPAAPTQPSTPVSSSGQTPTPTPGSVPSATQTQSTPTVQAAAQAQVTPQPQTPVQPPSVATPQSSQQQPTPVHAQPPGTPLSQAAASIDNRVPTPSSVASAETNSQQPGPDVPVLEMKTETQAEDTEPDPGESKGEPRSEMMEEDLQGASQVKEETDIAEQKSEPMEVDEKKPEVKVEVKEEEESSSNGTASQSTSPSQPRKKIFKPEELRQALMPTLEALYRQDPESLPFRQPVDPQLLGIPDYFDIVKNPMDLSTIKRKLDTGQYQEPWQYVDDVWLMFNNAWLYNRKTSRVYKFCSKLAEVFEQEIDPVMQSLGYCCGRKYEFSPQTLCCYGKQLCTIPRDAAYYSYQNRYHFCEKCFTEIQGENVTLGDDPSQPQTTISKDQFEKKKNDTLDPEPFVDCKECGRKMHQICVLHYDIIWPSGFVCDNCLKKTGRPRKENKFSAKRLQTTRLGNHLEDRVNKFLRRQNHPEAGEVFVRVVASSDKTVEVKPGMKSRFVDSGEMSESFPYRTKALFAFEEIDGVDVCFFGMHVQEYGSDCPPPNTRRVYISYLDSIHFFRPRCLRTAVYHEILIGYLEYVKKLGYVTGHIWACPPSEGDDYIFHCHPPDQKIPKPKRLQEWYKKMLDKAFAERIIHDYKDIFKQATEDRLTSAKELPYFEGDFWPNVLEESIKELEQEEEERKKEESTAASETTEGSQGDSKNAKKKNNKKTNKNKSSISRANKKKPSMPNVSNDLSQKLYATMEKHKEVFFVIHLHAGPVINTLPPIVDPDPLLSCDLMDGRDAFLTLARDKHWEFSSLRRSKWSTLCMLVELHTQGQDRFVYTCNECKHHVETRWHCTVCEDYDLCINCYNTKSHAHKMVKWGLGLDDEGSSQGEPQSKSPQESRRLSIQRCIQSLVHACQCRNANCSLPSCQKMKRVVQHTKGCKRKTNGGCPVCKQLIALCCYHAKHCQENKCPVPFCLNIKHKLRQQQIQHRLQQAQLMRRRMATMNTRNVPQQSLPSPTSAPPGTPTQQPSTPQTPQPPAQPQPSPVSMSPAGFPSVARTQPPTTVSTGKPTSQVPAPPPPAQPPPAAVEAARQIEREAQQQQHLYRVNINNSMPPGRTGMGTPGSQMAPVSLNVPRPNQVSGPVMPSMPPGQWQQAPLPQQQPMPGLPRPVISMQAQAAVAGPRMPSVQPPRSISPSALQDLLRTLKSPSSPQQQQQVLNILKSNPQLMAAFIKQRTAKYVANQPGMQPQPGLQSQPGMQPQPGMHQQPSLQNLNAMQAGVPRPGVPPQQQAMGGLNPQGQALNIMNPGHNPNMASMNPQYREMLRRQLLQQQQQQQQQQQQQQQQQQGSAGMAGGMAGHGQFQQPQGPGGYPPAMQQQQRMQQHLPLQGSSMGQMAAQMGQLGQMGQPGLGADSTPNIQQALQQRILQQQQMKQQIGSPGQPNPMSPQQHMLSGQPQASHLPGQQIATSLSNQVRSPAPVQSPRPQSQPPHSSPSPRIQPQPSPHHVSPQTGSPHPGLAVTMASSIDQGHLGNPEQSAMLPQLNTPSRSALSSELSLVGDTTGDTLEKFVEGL

As to “FLAG-tagged WT NRF2, stably expressed in A549 (TRE3G-driven, dox-induced) (from UniProt Q16236) Neh4: …>… (F>A; D>A; C>A; L>A); Neh5: …>… (Q>A; D>A; E>A; L>A)”, the other: log2(fold change) in experiment [1] was -3.8; in experiment [2] it was -3.2.
